Results from the RNAGym collection of RNA variant scans (doi:10.7554/elife.80360).

B1: Hairpin Ribozyme (parent)
chain: GUCCUCUUUCACGUGCGCGUGAAAGAGAGAAGUGAACCAGAGAAACACACGUUGUGGUAUAUUACCUGGUA

Variants of: B1
Assay: self-cleavage, relative activity (ratio to wild type); higher = more cleavage; co-transcriptional

Variant | self-cleavage
A24C A36C | 0.631
A24G A47U | 0.0569
A23C U58A | 0.49
A23C U58C | 0.821
A24G A36G | 0.679
A24G C50U | 0.371
A24G C50G | 0.136
A23G G42A | 0.192
A23G G42U | 0.359
A23G C46U | 0.0862
A23C G51U | 0.993
A22U U52A | 0.836
A23C A64C | 0.0802
A23C A64U | 0.118
A23C A61G | 0.161
A23C A61U | 0.204
A23C U63C | 0.136
A23G C65A | 0.667
A22G G32A | 0.0872
A22G G32U | 0.0605
A23U G57A | 0.116
A23G A44G | 0.126
A23C A49U | 0.257
A23C A49G | 0.393

Variant | self-cleavage
A22U A71G | 0.791
A22U A71U | 0.747
A22U A39C | 0.456
A22U A39G | 0.277
A24G A71C | 1.4
A23G C50A | 0.218
A22U G56U | 0.063
A22U G56C | 0.214
A23G A61C | 0.266
A23G A61G | 0.136
A24C C46A | 0.134
A24C C46G | 0.105
A24C C46U | 0.142
A23G G57C | 0.177
A23G G57A | 0.19
A23G U33A | 0.131
A23G U33G | 0.125
A23G A45C | 0.0971
A23G A45U | 0.143
A23G A45G | 0.175
A22U G51A | 0.811
A22G A45C | 0.13
A24C A64U | 0.172
A23C U62C | 0.206

Variant | self-cleavage
A23C A41G | 0.928
A22G U60A | 0.949
A23U G69U | 0.247
A23G G69U | 0.148
A22G G57C | 0.141
A24C C50U | 0.418
A24C C50A | 0.103
A23G U55C | 0.322
A23G U55A | 0.273
A23U G29C | 0.145
A22U G27C | 0.178
A22U G27A | 0.283
A22U G27U | 0.187
A22U U67A | 0.188
A22U U67C | 0.168
A24C U70C | 0.778
A24C U70G | 0.666
A22G U70C | 0.57
A24G A26C | 0.367
A24G A26G | 0.569
A24G A26U | 0.661
A23C A30U | 0.118
A23C A30G | 0.184
A24C A39G | 0.28

Variant | self-cleavage
A23G C38U | 0.43
A23G C38A | 0.239
A24C A71C | 1.33
A22U A26U | 0.907
A22U A26C | 0.479
A22G C50A | 0.227
A22U A24U | 0.554
A22U A24C | 0.71
A22G A61G | 0.285
A23C C37U | 0.444
A24C U67C | 0.208
A22U G68C | 0.252
A22U G25C | 0.143
A22U G25A | 0.149
A22U U58C | 1.04
A22U U60A | 0.77
A23U U70A | 0.729
A23U U70G | 0.647
A24G | 0.87
A24C | 0.894
A23C C38G | 0.0489
A23U U63G | 0.199
A23G A30U | 0.181
A23G A30C | 0.115

Variant | self-cleavage
A24C G51A | 0.932
A24C G51C | 0.77
A24C A35U | 0.938
A23U A59G | 0.183
A24C G56A | 0.1
A24C G56U | 0.231
A24C G56C | 0.115
A23C A26U | 0.499
A23C A26G | 1.01
A22U | 0.864
A24C G54U | 0.534
A24C G54C | 0.313
A23G U70G | 0.759
A23U A30C | 0.201
A23U A30G | 0.228
A22U G57C | 0.175
A22U G57A | 0.121
A24G A45C | 0.235
A24G A45U | 0.145
A22U G42U | 0.369
A24C G57A | 0.24
A23G C48G | 0.159
A23G C48A | 0.123
A24G A44C | 0.0644

Variant | self-cleavage
A24G A44U | 0.0876
A22U G29U | 0.071
A22U G29C | 0.214
A23U G42U | 0.246
A23U G42C | 0.259
A23G A71C | 1.37
A22U A23G | 0.72
A22U A23C | 0.733
A23G U62A | 0.116
A23C A47C | 0.417
A23C A47U | 0.0967
A22G U55G | 0.33
A24C G69A | 0.484
A24C G69C | 0.218
A22U A36U | 0.58
A24C G25A | 0.219
A24G A39C | 0.384
A22G A39U | 0.42
A22U G34U | 1.21
A22U G34C | 0.996
A22U A64C | 0.113
A23C G69U | 0.297
A23U A49G | 0.356
A22G A64C | 0.22

Variant | self-cleavage
A24C A31U | 0.107
A24C A31C | 0.209
A22G U62C | 0.276
A23U G27A | 0.394
A22U U62G | 0.147
A22U A49G | 0.488
A22U A49C | 0.146
A23U G51U | 0.893
A23C G32A | 0.102
A23C G32C | 0.0217
A23C G32U | 0.15
A23C C46U | 0.0785
A22G C66G | 0.302
A23U A26U | 0.606
A23U A26C | 0.545
A24G A31C | 0.041
A24G A31U | 0.111
A22U G69C | 0.219
A23U G40A | 0.309
A23U C65U | 0.402
A23U C65A | 0.752
A22U A41C | 0.87
A23C G27U | 0.253
